Assay results as given in patent US11994512B2, “Single-cell genomic methods to generate ex vivo cell systems that recapitulate in vivo biology with improved fidelity” (Massachusetts Institute of Technology, priority 2018, dated 2024).

B1: B9EJ86 (protein, UniProt B9EJ86 1-889, looked up)
chain: MEAALADGEPDRSSLLGDSKDVLGPSTVVANSDEPQHLTPGKMSQRQGRDANPTPTRDLPQPSLSPASLHSQGFERGKEDISQNKDDSSLSMSKSKSESKLYNGSEKDSSTSSKLTKKESLKVQKKNYREEKKRATKELLSTITDPSVIVMADWLKIRGTLKSWTKLWCVLKPGVLLIYKTQKNGQWVGTVLLNACEIIERPSKKDGFCFKLFHPLEQSIWAVKGPKGEAVGSITQPLPSSYLIIRATSESDGRCWMDALELALKCSSLLKRTMVREGKEHDLSISSDSTHVTLYGLLRANNLHSGDNFQLNDSEIERQHFKDQDLYSDKSDKENDPEHDESDNEVLGKSEESDTDTSERQDDSYIDPEPVEPLKETTYMEQSHEELGEAGEASQTETVSEENKSLIWTLLKQVRPGMDLSRVVLPTFILEPRSFLDKLSDYYYHADFLSEAALEENPYFRLKKVVKWYLSGFYKKPKGLKKPYNPILGETFRCLWIHPRTNSKTFYIAEQVSHHPPISAFYVSNRKDGFCLSGSILAKSKFYGNSLSAILEGEARLTFLNRGEDYVMTMPYAHCKGILYGTMTLELGGTVNITCQKTGYSAILEFKLKPFLGSSDYVNQISGKLKLGKEVLATLEGHWDSEVFINDKKTDNSEIFWNPTPDIKQWRLIRHTVKFEEQDDFESEKLWQRVTKAINAKDQTEATQEKYVLEEAQRQAARDRKTKTQEWVCKLFELDPLTGEWHYKFSDTRPWDPLNDMIQFEKDGVIQTKVKHRTPMVSVPKMKHKPTRQQKKVVKGYSSPEPDIQDSSGSEAQSVKPSTRRKKGIDLGDIQSSIESIKQTQEEIKRNIMALRNHLLSSTPATDYFLQQKDYFVIFLLILLQVIINFIFK
modifications: full-length
B2: D3YUE4 (protein, UniProt D3YUE4 1-279, looked up)
chain: MAACAGGPGSWSENILKYFLRNNQITAEDGAEILWSHAANHKSQMNEALKSAAHMIEADVLLPSDGSEHGQPIMAHPPETSSDNTLQEWLAEVVKSNKGIKLDFKSLAAVRASMLFLDNMKQHLQRPVWINADILPGPNGSSKVVDAKAFLDTVTSFFPDVTFSLGWTTGWHPEKVNEGYSWSMVKEMDYICSELTQPVTFPVRAALVRQSCPQLLWLLTKSNRYSLTVWTGKDDIYSTEDLLYIRDYFNKTQVFYDISEPQNHEFKQAIGIRGHSLRI
modifications: full-length
B3: E9Q5C9 (protein, UniProt E9Q5C9 1-702, looked up)
chain: MADTGLRRVVPSDLYPLVLRFLRDSQLSEVASKFAKATGATQQDANASSLLDIYSFWLNRSTKAPKVKLQSNGPVTKKAKKETSSSDSSEDSSEDEDKKAQGLPTQKAAAQVKRASVPQHAGKAAAKASESSSSEESSEEEEEDKKKKPVQQKAAKPQAKAVRPPAKKAESSESDSDSDSDSSSEEETPQTQKPKAAVAAKAQTKAEAKPGTPAKAQPKVANGKAAASSSSSSSSDDSEEEKKAAAPPKKTVPKKQVVAKAPVKVAAAPTQKSSSSEDSSSEEEEGQRQPMKKKAGPYSSVPPPSVPLPKKSPGTQAPKKAAAQTQPADSSDDSSDDSDSSSEEEKKPPAKTVVSKTPAKAAPVKKKAESSSDSSDSDSSEDEAPAKPVSTTKSPKPAVTPKPSAAKAVTTPKQPAGSNQKPQSRKADSSSSEEESSSSEEEEASKKSATTPKAKVTAKAAPAKQAPQAAGDSSSDSDSSSSEEEEKTPKPPAKKKAAGGAVSTPAPGKKAEAKSSSSSSSSSSEDSSEEEKKKKPKATTPKIQASKANGTPASLNGKAAKESEEEEEEEETEEKKKAAGTKPGSGKKRKQNETADEATTPQAKKVKLETPNTFPKRKKGERRASSPFRRVREEEIEVDSRVADNSFDAKRGAAGDWGERANQVLKFTKGKSFRHEKTKKKRGSYRGGSISVQVNSVKFDSE
modifications: full-length
B4: O08529 (protein, UniProt O08529 1-700, looked up)
chain: MAGIAIKLAKDREAAEGLGSHERAIKYLNQDYETLRNECLEAGALFQDPSFPALPSSLGYKELGPYSSKTRGIEWKRPTEICADPQFIIGGATRTDICQGALGDCWLLAAIASLTLNEEILARVVPPDQSFQENYAGIFHFQFWQYGEWVEVVVDDRLPTKDGELLFVHSAEGSEFWSALLEKAYAKINGCYEALSGGATTEGFEDFTGGIAEWYELRKPPPNLFKIIQKALEKGSLLGCSIDITSAADSEAVTYQKLVKGHAYSVTGAEEVESSGSLQKLIRIRNPWGQVEWTGKWNDNCPSWNTVDPEVRANLTERQEDGEFWMSFSDFLRHYSRLEICNLTPDTLTCDSYKKWKLTKMDGNWRRGSTAGGCRNYPNTFWMNPQYLIKLEEEDEDEEDGERGCTFLVGLIQKHRRRQRKMGEDMHTIGFGIYEVPEELTGQTNIHLGKNFFLTTRARERSDTFINLREVLNRFKLPPGEYVLVPSTFEPHKDGDFCIRVFSEKKADYQAVDDEIEANIEEIDANEEDIDDGFRRLFVQLAGEDAEISAFELQTILRRVLAKRQDIKSDGFSIETCKIMVDMLDEDGSGKLGLKEFYILWTKIQKYQKIYREIDVDRSGTMNSYEMRKALEEAGFKLPCQLHQVIVARFADDELIIDFDNFVRCLVRLETLFKIFKQLDPENTGTIQLNLASWLSFSVL
modifications: full-length
B5: O09010 (protein, UniProt O09010 1-378, looked up)
chain: MLQRCGRRLLLALVGALLACLLVLTADPPPTPMPAERGRRALRSLAGSSGGAPASGSRAAVDPGVLTREVHSLSEYFSLLTRARRDADPPPGVASRQGDGHPRPPAEVLSPRDVFIAVKTTRKFHRARLDLLFETWISRHKEMTFIFTDGEDEALAKLTGNVVLTNCSSAHSRQALSCKMAVEYDRFIESGKKWFCHVDDDNYVNLRALLRLLASYPHTQDVYIGKPSLDRPIQATERISEHKVRPVHFWFATGGAGFCISRGLALKMGPWASGGHFMSTAERIRLPDDCTIGYIVEALLGVPLIRSGLFHSHLENLQQVPTTELHEQVTLSYGMFENKRNAVHIKGPFSVEADPSRFRSVHCHLYPDTPWCPRSAIF
modifications: full-length
B6: O09037 (protein, UniProt O09037 1-175, looked up)
chain: MLPHLVLNSISWMLLSCLLFVFQVQGEDFQKEVPSPRTSCPMGYKAYRSHCYALVMTPKSWFQADLVCQKRPSGHLVSILSGGEASFVSSLVNGRVDNYQDIWIGLHDPTMGQQPNGGGWEWSNSDVLNYLNWDGDPSSTVNRGHCGSLTASSGFLKWGDYYCDGTLPFVCKFKQ
modifications: full-length
B7: O35280 (protein, UniProt O35280 1-476, looked up)
chain: MAVPFVEDWDLVQTLGEGAYGEVQLAVNRITEEAVAVKIVDMKRAIDCPENIKKEICINKMLSHENVVKFYGHRREGHIQYLFLEYCSGGELFDRIEPDIGMPEQDAQRFFHQLMAGVVYLHGIGITHRDIKPENLLLDERDNLKISDFGLATVFRHNNRERLLNKMCGTLPYVAPELLKRKEFHAEPVDVWSCGIVLTAMLAGELPWDQPSDSCQEYSDWKEKKTYLNPWKKIDSAPLALLHKILVETPSARITIPDIKKDRWYNKPLNRGAKRPRATSGGMSESSSGFSKHIHSNLDFSPVNNGSSEETVKFSSSQPEPRTGLSLWDTGPSNVDKLVQGISFSQPTCPEHMLVNSQLLGTPGSSQNPWQRLVKRMTRFFTKLDADKSYQCLKETFEKLGYQWKKSCMNQVTVSTTDRRNNKLIFKINLVEMDEKILVDFRLSKGDGLEFKRHFLKIKGKLSDVVSSQKVWFPVT
modifications: full-length

System: intracellular proteome of ENR+CD and ENR organoids
Assay: LC-MS/MS TMT proteomics of ENR+CD versus ENR organoids
Format: cell-based, C57BL/6 mice
Conditions: for Average logFC / M1-1 Log2 Median Normalized / M1-2 Log2 Median Normalized / M2-1 Log2 Median Normalized / M2-2 Log2 Median Normalized: protein abundance, ENR+CD versus ENR organoids; for Average logFC: aggregate of the four sample pairs; for M1-1 Log2 Median Normalized: replicate M1-1; for M1-1 Log2 Median Normalized / M1-2 Log2 Median Normalized / M2-1 Log2 Median Normalized / M2-2 Log2 Median Normalized: log2 ratio; for M1-2 Log2 Median Normalized: replicate M1-2; for M2-1 Log2 Median Normalized: replicate M2-1; for M2-2 Log2 Median Normalized: replicate M2-2; for change: up = enriched in ENR+CD, down = enriched in ENR, FDR<0.05 and log fold change cut-off
Text: Because PCs are highly secretory, protein-rich cells, Applicants sought to assess the total intracellular proteome between conditions through liquid chromatography mass spectrometry (LC-MS/MS)-based proteomics. Applicants quantified relative protein abundance across eight samples using isobaric mass tag labeling from four ENR and four ENR+CD samples (M1-1 through M2-2, first digit denotes biological donor, second digit denotes technical replicate) (FIG. 3A). Samples were processed and analyzed in a single 10-plex by LC-MS/MS (FIG. 9A).
To affirm the reproducibility of the associated proteins in the ENR+CD-enriched proteome, Applicants performed relative quantification within differentiation sets.
Mass spectrometry proteomics sample preparation, sequencing, and quantification. Organoid cell pellets were isolated from Matrigel with mechanical dissociation and washed (cold PBS 5X) to remove residual extracellular protein. Proteins were extracted from cell pellets with 8 M urea (Sigma), reduced with 5 mM DTT (Thermo Fisher Pierce) for 45 minutes, alkylated with 10 mM IAA (Sigma) for 45 minutes in the dark, and double digested with both Lysyl Endopeptidase “LysC” (Wako) and trypsin (Promega) overnight at RT. A small aliquot of cellular lysate was removed from each sample for protein quantification via the Pierce™ BCA Protein Assay Kit (Pierce). After proteolytic digestion, the samples were quenched using formic acid to a final concentration of 1.0% and subsequently desalted on 10 mg OASIS HLB solid phase columns (Waters).
The peptides were labeled with TMT-10 isobaric mass tag reagent according to manufacturer's instructions (ThermoFisher Scientific). The peptides were labeled at a 1:8 ratio of peptide to TMT reagent, followed by 1-hour incubation at RT with bench top shaking at 850 rpm. After incubation, a […] of labeled tryptic peptide was removed from each labeled condition, desalted with C18 stage tips, and analyzed via LC-MS/MS using a Thermo Fisher Q Exactive Plus Hybrid Mass Spectrometer (QE-Plus) coupled to a Thermo Fisher EASY-nLC 1000 liquid chromatograph to ensure isobaric label incorporation >95%. An additional 1.0 μg of labeled tryptic peptide was removed from each channel, mixed together, desalted on a C18 stage tip, and analyzed via LC-MS to ensure equal relative protein loads. During these quality control steps, the labeled peptides were stored, unquenched at −80° C.

| Molecule | Average logFC | M1-1 Log2 Median Normalized | M1-2 Log2 Median Normalized | M2-1 Log2 Median Normalized | M2-2 Log2 Median Normalized | change |
| --- | --- | --- | --- | --- | --- | --- |
| B1 | 1.24 | 1.242 | 1.864 | 1.0905 | 0.802 | up |
| B2 | −1.165 | −0.678 | −1.053 | −1.3175 | −1.611 | down |
| B3 | −1.884 | −1.968 | −1.821 | −1.5075 | −2.239 | down |
| B4 | 1.309 | 1.421 | 1.297 | 1.1725 | 1.347 | up |
| B5 | 1.464 | 1.443 | 1.37 | 1.4835 | 1.56 | up |
| B6 | −1.611 | −1.64 | −2.141 | −1.5875 | −1.077 | down |
| B7 | −1.266 | −1.09 | −1.001 | −1.4995 | −1.475 | down |
